Here are results for one molecule from patent publication US20200262889A1 (B G NEGEV TECHNOLOGIES AND APPLICATIONS LTD AT BEN GURION …, published 2020).

This test addresses T1, mouse OAT-3 (oat3, slc22a8) (mouse, UniProt O88909 1-537).
T1 construct: whole, on cells; Expressed in HEK293T cells; coIP from lysates; not shown: myc-DDK tag of the pCMV6-Entry myc-DDK vector
T1 sequence (looked up): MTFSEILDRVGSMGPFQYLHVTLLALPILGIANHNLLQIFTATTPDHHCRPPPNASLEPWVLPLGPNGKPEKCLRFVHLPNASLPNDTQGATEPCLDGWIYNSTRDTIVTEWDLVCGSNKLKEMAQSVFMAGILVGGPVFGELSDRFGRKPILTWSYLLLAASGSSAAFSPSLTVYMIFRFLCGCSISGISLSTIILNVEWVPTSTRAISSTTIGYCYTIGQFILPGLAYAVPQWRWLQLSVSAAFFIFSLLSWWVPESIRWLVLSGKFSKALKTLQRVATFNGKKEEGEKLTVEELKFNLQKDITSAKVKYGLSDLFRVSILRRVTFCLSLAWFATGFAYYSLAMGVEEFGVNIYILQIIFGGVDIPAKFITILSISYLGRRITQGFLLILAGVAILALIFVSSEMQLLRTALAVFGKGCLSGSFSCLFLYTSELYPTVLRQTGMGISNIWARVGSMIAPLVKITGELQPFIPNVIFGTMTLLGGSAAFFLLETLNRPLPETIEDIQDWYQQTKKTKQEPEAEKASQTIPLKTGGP
The test is described as follows: coIP from HEK293T cells co-transfected with OAT-3 and IRBIT. The text has this:
To determine whether IRBIT regulates succinate efflux via interaction with OATs, the interaction of OAT-1 and/or OAT-3 with IRBIT was monitored by coIP. […] Succinate uptake was elevated by expression of OAT-1 alone, that was abolished by the OAT inhibitor probenecid (FIG. 6B-C). Neither IRBIT, SUCNR1 stimulation, nor inhibition of PLC by U73122 affected the OAT-mediated succinate uptake. These findings indicate that OAT-1 activity is IRBIT-independent.

B1: IRBIT (IP3 receptor-binding protein released with IP3; S-adenosylhomocysteine hydrolase-like protein) (other)
chain: SMPDAMPLPGVGEELKQAKEIEDAEKYSFMATVTKAPKKQIQFADDMQEFTKFPTKTGRRSLSRSISQSSTDSYSSAASYTDSSDDEVSPREKQQTNSKGSSNFCVKNIKQAEFGRREIEIAEQDMSALISLRKRAQGEKPLAGAKIVGCTHITAQTAVLIETLCALGAQCRWSACNIYSTQNEVAAALAEAGVAVFAWKGESEDDFWWCIDRCVNMDGWQANMILDDGGDLTHWVYKKYPNVFKKIRGIVEESVTGVHRLYQLSKAGKLCVPAMNVNDSVTKQKFDNLYCCRESILDGLKRTTDVMFGGKQVVVCGYGEVGKGCCAALKALGAIVYITEIDPICALQACMDGFRVVKLNEVIRQVDVVITCTGNKNVVTREHLDRMKNSCIVCNMGHSNTEIDVTSLRTPELTWERVRSQVDHVIWPDGKRVVLLAEGRLLNLSCSTVPTFVLSITATTQALALIELYNAPEGRYKQDVYLLPKKMDEYVASLHLPSFDAHLTELTDDQAKYLGLNKNGPFKPNYYRY
notes: The methods say only 'IRBIT in pcDNA3.1(+)'
Consider B1, for which the binding result is reported as “no binding”.
